Data reported in paper PMC4476745.

Target: PAR-5 (UniProt P41932)
Test: IP anti-GFP, blot anti-PAR-5
Settings: reference: wild type ATGL-1::GFP; sites S303

binding against the reference: weaker
Substance: ATGL-1 (from UniProt Q11186) ATGL-1(S303A)::GFP
